Test results: publication PMC3225930

How the values were obtained:
α-chymotrypsin [1] = assay: enzyme inhibition kinetics (reciprocal plots); α-chymotrypsin with substrate N-benzoyl-tyrosine ethyl ester (BTEE, 0-2 mM), 50 mM Tris-HCl pH 7.8, 25 °C; read at 253 nm; Spi1C at 0, 22.7, 45.4 and 68.1 nmol/L in the Lineweaver-Burk plots
trypsin [2] = molecular target: trypsin
α-chymotrypsin [3] = molecular target: α-chymotrypsin
trypsin [4] = assay: enzyme inhibition kinetics (reciprocal plots); trypsin with substrate H-D-Phe-Pip-Arg-pNA (S-2238, 0-2 mM), 50 mM Tris-HCl pH 7.8, 25 °C; Spi1C pre-incubated with the enzyme for 15 min; pNA read at 405 nm; Spi1C at 0, 22.7, 45.4 and 68.1 nmol/L in the Lineweaver-Burk plots

## recombinant Spi1C protein (natural protein)
α-chymotrypsin [1]
  Ki: 0.0179 µM
Trypsin [2]
  specific inhibitor activity (inhibition of trypsin activity): 6940 U/mg
α-chymotrypsin [3]
  specific inhibitor activity (inhibition of α-chymotrypsin activity): 3640 U/mg
Trypsin [4]
  Ki: 0.0152 µM
